According to the domain aggregation screens of Martell et al. (2025):

Assay: soluble fraction after stress (log2 fold change); higher = more stays soluble; pooled small domains, quantitative proteomics
Conditions: stress: pH 4
In short: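 Small protein domains from pooled custom libraries were exposed to pH 4, then quantified with high-throughput quantitative proteomics. The fold change in how much of each domain remains soluble is read as aggregation propensity. It is given as log2, with higher values meaning more stayed soluble.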

| Sequence | soluble fraction (log2) |
| --- | --- |
| HMKKKLPRYLQEQKYGNGMVFYRYNPTARYIDEGIVTRTNLGSDLSIAKKKANEFNKLIDAFLQQQSE | -0.0245 |
| HMSATIMVLRASEDIPVGTEIKDNHLTTVEVGSYGLPEGAINDKDTVLGKVAQTNIIKGDYFFPQKLGG | -1.18 |
| HMGAISGEQREFYTVFRGHLNSHVGEFKVEDIENLLMKAKTEVPDLLEEEFLKMGEAILNRYRN | -0.966 |
| HMNLQGIISQKAIVTQTIEPYETGVAKLNGEEWTAMSKDETRIEAGKLVEVVAIEGVKLIVKEVS | -0.295 |
| HMSYKDIKEASDTGTYRDEENNIDVKWQKLFNGHNEYFDIEAYRDGERVEINNQQADRYIYLIKQEMD | -0.357 |
| HMKYYIYQGLGDSGELTKIAEVTDVKTYTATGLEANTKYRFAVSAYNGLRESSKSNIITVTT | -0.325 |
| HMNVEQQNQARENIKRLMEEQGLSQPKLSEKAGIAFGTLSRILRGKQDLTIQTAEKIADALGLSVYDLAE | 0.247 |
| HMSDSAFAEMRRELEALRNSNAEYERALSNFFPEAEDKALAAEAFYQNREYDELVAEREEANVIDGLKR | -0.815 |
| HMAEMRYLDQIYEVNVPLPDLSLEDGDLLARWAVNFHQRYEELFSYRQSDQEIRLVTLRVTVLGELP | -1.67 |
| HMQPTVEGLMKALETMTFNERTALALHYGLTGRQPMTFMAIGRYLGISDGRAEALVNSAIRKLR | 0.0497 |
| HMQLEPLVTSVIPVNFAKASDISGTIKGKEVGLLSERGNITAENRTNVLIVKDIRKSVDEINAMVKRLD | 0.151 |
| HMLTLDEKRRLQIMRVQVALTSLGLYNGRVDGVLNAETKLGLEFFQDLKGLPKSGTMTTPTLNALGVPA | -0.347 |
| HMNKAYLTVADMKKDKSLKNGDVVRTLGYYGYNDGDGAVYQIKDSHPEDYHIRLDNGLDAEQINY | 0.174 |
| HMSTPENLGGRNTAKARISWLENGVKQELESDFPAAEVVKLSSRFGGEVPELTVIRPSLEDIYLKMIG | -0.269 |
| HMSKMTLGENLRLLRREKGLSQEQVAQTLFVARQTISKWENGQAEPGVESLKALAKLYGVSLDRLVGA | -0.324 |
| HMSLPAYIKISEVIARRINAGQILAGDRLPNERTMAVEFGVAVGTLRKALYHLQVRGLVTRKHGSGNYINK | 0.249 |
| HMASSVKAPLPGVILDIKVKVGDTIKNGDTVVILEAMKMENNIHSDKDGVVKSIEVNKGDSVLEGATLLTI | -0.822 |
| HMFIMQTVALGSEGPDVRALQSILNRIGYNAGTVDGIFGSRTRQAVIAFQRNNGLAADGVAGPATWG | -0.0509 |
| HMNATPDMERYWASSAAEGRALEPLYAVSRGDGGEPLWWSPSRAQAERMAREEGGPLTVDRIDPP | -0.0463 |
| HMERTQSIEAAREQLGEVTKDNVFETETLGALAILKENEPGEYAKIKADLKGKINMNDLERAVKKAAADQR | -0.0729 |
| HMVQIQDIAFSEFLNELEKGNILDVNIKGDLINGNMLDGKKFKTYAPYDPSLVEKLSKQNVTINVEPVN | -0.06 |
| HMENVVESIYNKMVESITNGQWAAGSKIPTENELAKTYQVSRSSVRQAISRLKALGLLESRQGSGTVIKK | 0.178 |
| HMSQIQIKLDQAIMQLPEKQRFVFMLRYFEELPYEKIAQITETSIGGAKANFHQALKKMQEIIQ | -0.397 |
| HMRVQELARDLGVEADTLIALLRQMGIPVTGARSAINDAQQAKVLAKIERERRAGHSDPAKAIQAVLEEAS | 0.0597 |
| HMEDPLGDLIGRIAAATGRPVQDIVAEVHRVVTDHFDGNLRVEAAAVILARKYGVAFEDKLSALQRSV | -0.559 |
| HMKSLPQKLLAYLESQGLTRDEAGEFVKQGLKITSNDVDQIQLLLANTEVIDIKLQEFIAQK | -0.549 |
| HMEPLKLGDATGDGKINLQDVLEMQKHMAGILVLKGKFFTAADVNGNGKIELVDVLSVQKYLAGVTAEV | -0.0932 |
| HMVSTSVTVTGDLNVRADSRADSDLVGALIPGQTVTRLAVLDNGWSKIRFDDGAGTVVEGYVLSEYLQADG | 0.131 |

| Sequence | soluble fraction (log2) |
| --- | --- |
| HMLTGESDNVEKSINKLGTENLALADQTNMGFKGTFINSGHGMAIVVKTGMQTELGKIASMIQIA | 0.22 |
| HMGYKDIDKLSGVDLAIYRFIVEHDEQIPYMRVRELARGAHVSNSSVMRFIRKIGYDSFPEFKVSLRS | -0.322 |
| HMISKRFQVDEENSNNRVDIFLANNLDSISRGIVQQLILDGKVLVNGETVKRNHLLKTNDEVDISFEI | 0.0466 |
| HMVYNGYYAKSFNGYVVILNGDEKTVYEYTQIPIHLLPEDIRSSVMSGYYLENETDLYNFLENYS | -0.211 |
| HMGQKDYKTRLQEYFAKQGLKVNYEDTSHGPDHNKNFSTDVFLDGKIIGSGIGKSKKSSQQSAAKDALNIL | ≥ 0.43 |
| HMGKKYVPGMAVKLSAVPLYAASTSKVPSTHVTGTYYLWDDEVVRGRLRITNLKSRVGISGQVTGWIDKDR | 0.0244 |
| HMRKMNDAVFYVEMSRPKRGYYTATYKLITRNPNSLPEHEITRRFFQMLEETIRKNPPYYLWTH | 0.104 |
| HMERYLLRDNIPNALHGERLDRVIAIMTGLSRSAVSALIKSNQVLRNGQIAQSISEKVVEGDELEVHLEP | -0.465 |
| HMLDVGDQLVKKLKDNDSLDFHFVNSKEANKGLKDGDYYMVITIPSNFSKNATTLLDKNPKKMVLNYTTNP | 0.13 |
| HMKTVPNVEGEKDGTAQSAIESAGLKVGKVTYQYDDNTSKGLVISQSVKGGEKVKPNTAIDLVVSNGPK | 0.22 |
| HMGSGQIRYITENTVRVVYGTSKENEFVFQDGKPYPKDTPYHIHYTRNLEEYFMSGVEHDKNSKIILKVD | -0.792 |
| HMDIYLDEVNRKILHLLSQGIKTRSLREYINLSMSAIEKRKKHMKELFLVEDGKDETLLNEARNKGF | -0.64 |
| HMKKPAERRKELVDAAAHLFAEKGYENTSVRDILDAVGGAPGMFYYYFKSKQDIYVAVMEDF | -1.1 |
| HMQQLDDDTVAYVADNGIAVKSKNGKELSVDTSGLSYDIIMDMFRNLPRNGDFFSSKYWSDNIQKAQAR | -1.34 |
| HMEKPTRNKLVEIIIQNKNVTTEQMANLLNISRRAVAKHIKKLQEEGIIRRIGPDFGGHWEIVK | 0.225 |
| HMLSKEFRFFTYLLESYAQHKNTTAGAVLKTLDEKGLTDFVYKMYDLYHVEAIENAYMDLDSLIATGKPA | -0.989 |
| HMAGPRRRLLDAAIDRAAERGLGDLSLRALAEELGTSHRMLSHHFGSKDGLWLAIVEEVERRQ | -0.661 |
| HMVDFHAAYSILRIAPGASWQEIQAAYEKLNDAWREDRYPQVPFWNEKAAFKRREVEQAYEKLRKFHALRH | 0.0778 |
| HMALKPKITIEELIRILNESKDLSDSETAKILNKDYTTAKYGKEFTSINVQGARYALDIATNTS | -0.323 |
| HMAPLATLEADGNGAVKLPNLAGHAIREVAAALGGANLALIPIGSGTSWKQNPAPGTILHKGDTVTVYF | -0.353 |
| HMDEALLRATLLDVLVKHHPKIGDKLDVVFALAKAWVSSGSDDDFEVLEKYMERLKPDEALMLASGFSNML | -0.819 |
| HMKSISMANGNVQLRINGVLASSLEVAALSPEDIKRVEYHDNPGLRYGEGIDIVLDYITIKRT | -1.16 |
| HMSTFTPYLVKVTTSVLNIRKGAGTNYGTNGSIRDMGTYTIVAEADGQGASKWGKLKSGAGWISLDYTKK | 0.184 |
| HMYEGNEFSSTGMFREDILAITAVHPMREDAVTELLARSNESEETLEMMIDEELLRRVAYGNHNYYMRRFR | -0.388 |
| HMGSKKITIYVSGEVKNPGIVTLNSDQRLASAVEKLGGVTENADMNNINLAMKLEDEMHYIIPKKGEK | 0.149 |
| HMNPGNTESFPVYQKRLGEIIQTLAGKKGQDINSPEVKELVGEYDFLTKQMFQLPDATSMVMEIATAYRN | -0.224 |
| HMGPTPTSAQLTEAKRLRTKLDDLNPELAERLWSEHREPYTETQYQTLIEKLAAEVQSAEGEIGR | 0.351 |
